Consider two molecules from doi:10.1101/2021.01.28.428602 (bioRxiv, 2021).

Read-outs that look alike come from different tables or passages of the source.

Experiment [1] deals with α1β3 GABAA receptor on COS7 cells (Rattus norvegicus (construct of ref. 7), UniProt P62813;P63079). The experiment is described as follows: immunostaining of cells or tissue.
The target of experiment [2] is α1β3γ2 GABAA receptor on COS7 cells (Rattus norvegicus (gamma-2 rat or …, UniProt P62813;P63079;P18508)). The experiment is described as follows: immunostaining of cells or tissue.
Experiment [3] concerns the target GABAA receptor β3 subunit alone on COS7 cells (Rattus norvegicus (construct of ref. 7), UniProt P63079). The experiment is described as follows: immunostaining of cells or tissue.
Experiment [4] has as its target GABAA receptor γ2 subunit alone on COS7 cells (Rattus norvegicus (rat or mouse …, UniProt P18508)). The experiment is described as follows: immunostaining of cells or tissue.
The target in experiment [5] is β3γ2 GABAA receptor subunits on COS7 cells (Rattus norvegicus (gamma-2 rat or …, UniProt P63079;P18508)). In words: immunostaining of cells or tissue.
In experiment [6] the target is T1, α2β3γ2 GABAA receptor on COS7 cells (Rattus norvegicus (gamma-2 rat or mouse …, UniProt P23576;P63079;P18508)). In words: immunostaining of cells or tissue.
T1 sequence (P23576 29-451, chain 1 of 3): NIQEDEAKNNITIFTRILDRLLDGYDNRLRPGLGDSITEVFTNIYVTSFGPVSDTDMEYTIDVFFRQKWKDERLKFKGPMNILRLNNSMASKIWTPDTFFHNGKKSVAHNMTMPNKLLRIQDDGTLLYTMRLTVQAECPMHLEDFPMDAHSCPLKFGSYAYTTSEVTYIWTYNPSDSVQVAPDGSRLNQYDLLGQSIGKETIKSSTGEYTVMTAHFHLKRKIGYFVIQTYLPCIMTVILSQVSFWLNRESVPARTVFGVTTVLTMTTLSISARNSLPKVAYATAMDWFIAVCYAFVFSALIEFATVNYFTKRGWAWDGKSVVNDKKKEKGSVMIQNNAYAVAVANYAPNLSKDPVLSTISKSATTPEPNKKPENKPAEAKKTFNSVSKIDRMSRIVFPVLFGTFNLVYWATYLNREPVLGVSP
T1 sequence (P63079 26-473, chain 2 of 3): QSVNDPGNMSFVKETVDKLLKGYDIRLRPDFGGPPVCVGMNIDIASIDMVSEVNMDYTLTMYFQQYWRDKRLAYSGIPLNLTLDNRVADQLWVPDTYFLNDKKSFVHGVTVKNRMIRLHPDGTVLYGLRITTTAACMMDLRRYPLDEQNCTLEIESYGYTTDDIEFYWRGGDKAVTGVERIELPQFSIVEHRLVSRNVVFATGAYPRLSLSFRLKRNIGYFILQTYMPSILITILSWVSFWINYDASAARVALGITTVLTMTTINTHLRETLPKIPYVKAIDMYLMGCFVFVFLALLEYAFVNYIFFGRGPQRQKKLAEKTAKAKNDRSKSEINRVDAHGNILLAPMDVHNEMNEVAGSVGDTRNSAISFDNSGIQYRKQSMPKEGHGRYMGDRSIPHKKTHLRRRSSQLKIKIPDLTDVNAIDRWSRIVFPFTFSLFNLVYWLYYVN
T1 sequence (P18508 39-466, chain 3 of 3): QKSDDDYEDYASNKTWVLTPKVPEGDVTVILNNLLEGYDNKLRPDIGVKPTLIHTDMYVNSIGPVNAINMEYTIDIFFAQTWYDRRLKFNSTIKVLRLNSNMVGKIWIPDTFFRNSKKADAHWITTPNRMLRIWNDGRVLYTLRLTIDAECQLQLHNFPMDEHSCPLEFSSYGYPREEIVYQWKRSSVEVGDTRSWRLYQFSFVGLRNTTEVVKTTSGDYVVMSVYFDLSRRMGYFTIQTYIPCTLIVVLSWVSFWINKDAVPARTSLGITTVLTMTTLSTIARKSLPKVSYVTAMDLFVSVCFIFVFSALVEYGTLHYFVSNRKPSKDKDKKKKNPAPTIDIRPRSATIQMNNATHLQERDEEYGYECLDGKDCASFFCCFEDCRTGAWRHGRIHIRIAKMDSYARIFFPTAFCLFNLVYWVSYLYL
The target of experiment [7] is T2, α3β3γ2 GABAA receptor on COS7 cells (Rattus norvegicus (gamma-2 rat or mouse …, UniProt P20236;P63079;P18508)). The experiment is described as follows: immunostaining of cells or tissue.
T2 sequence (P20236 29-493, chain 1 of 3): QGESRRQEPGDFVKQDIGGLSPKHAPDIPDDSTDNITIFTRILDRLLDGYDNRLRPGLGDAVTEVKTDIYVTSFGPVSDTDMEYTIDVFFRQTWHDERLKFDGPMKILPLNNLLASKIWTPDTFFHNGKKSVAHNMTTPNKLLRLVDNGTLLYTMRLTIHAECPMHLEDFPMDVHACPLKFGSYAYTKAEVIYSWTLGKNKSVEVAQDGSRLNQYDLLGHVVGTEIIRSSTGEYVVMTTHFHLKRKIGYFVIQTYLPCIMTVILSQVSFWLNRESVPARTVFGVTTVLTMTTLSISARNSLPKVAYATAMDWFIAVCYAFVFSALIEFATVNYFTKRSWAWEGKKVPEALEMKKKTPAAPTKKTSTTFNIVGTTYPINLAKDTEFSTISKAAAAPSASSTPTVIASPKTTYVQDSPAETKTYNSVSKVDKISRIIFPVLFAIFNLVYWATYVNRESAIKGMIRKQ
T2 sequence (P63079 26-473, chain 2 of 3): as the sequence (P63079 26-473, chain 2 of 3) above
T2 sequence (P18508 39-466, chain 3 of 3): as the sequence (P18508 39-466, chain 3 of 3) above
In experiment [8] the target is T3, α4β3γ2 GABAA receptor on COS7 cells (Rattus norvegicus (gamma-2 rat or mouse …, UniProt P28471;P63079;P18508)). In words: immunostaining of cells or tissue.
T3 sequence (P28471 36-552, chain 1 of 3): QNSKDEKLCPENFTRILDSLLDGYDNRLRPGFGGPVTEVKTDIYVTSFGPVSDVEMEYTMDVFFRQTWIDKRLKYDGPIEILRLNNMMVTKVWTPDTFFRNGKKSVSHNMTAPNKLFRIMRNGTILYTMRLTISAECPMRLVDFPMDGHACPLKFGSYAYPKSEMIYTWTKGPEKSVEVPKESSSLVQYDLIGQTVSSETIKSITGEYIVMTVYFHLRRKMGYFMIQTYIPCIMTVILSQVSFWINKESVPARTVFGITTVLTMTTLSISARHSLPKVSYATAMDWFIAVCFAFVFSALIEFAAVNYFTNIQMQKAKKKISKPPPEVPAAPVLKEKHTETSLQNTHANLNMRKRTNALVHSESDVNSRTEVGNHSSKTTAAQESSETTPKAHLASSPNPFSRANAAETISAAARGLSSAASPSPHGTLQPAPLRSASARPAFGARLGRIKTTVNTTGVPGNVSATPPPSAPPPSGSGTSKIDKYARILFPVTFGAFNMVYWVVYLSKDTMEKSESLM
T3 sequence (P63079 26-473, chain 2 of 3): as the sequence (P63079 26-473, chain 2 of 3) above
T3 sequence (P18508 39-466, chain 3 of 3): as the sequence (P18508 39-466, chain 3 of 3) above
Experiment [9] concerns the target T4, α5β3γ2 GABAA receptor on COS7 cells (Rattus norvegicus (gamma-2 rat or mouse …, UniProt P19969;P63079;P18508)). The experiment is described as follows: immunostaining of cells or tissue.
The target in experiment [10] is α1β2γ2 GABAA receptor on COS7 cells (Rattus norvegicus (gamma-2 rat or …, UniProt P62813;P63138;P18508)). In words: immunostaining of cells or tissue.
The target in experiment [11] is rat α1β3γ2 GABAA receptor on HEK293T cells (Rattus norvegicus, UniProt P62813;P63079;P18508). The experiment is described as follows: flow cytometry on cells.
The target in experiment [12] is T1, α2β3γ2 GABAA receptor on COS7 cells. In words: immunostaining of cells or tissue. This is another data set of the same source.
For experiment [13], the target named is T2, α3β3γ2 GABAA receptor on COS7 cells. The experiment is described as follows: immunostaining of cells or tissue. The source holds these as a separate data set.
Experiment [14] addresses T3, α4β3γ2 GABAA receptor on COS7 cells. In words: immunostaining of cells or tissue. The source holds these as a separate data set.
Experiment [15] addresses T4, α5β3γ2 GABAA receptor on COS7 cells. The experiment is described as follows: immunostaining of cells or tissue. This is another data set of the same source.
The target in experiment [16] is rat α1β3 GABAA receptor on HEK293T cells (Rattus norvegicus, UniProt P62813;P63079). The experiment is described as follows: immunostaining of cells or tissue.

Sequence of GABAA receptor β3 subunit alone on COS7 cells (P63079 26-473): as the sequence (P63079 26-473, chain 2 of 3) above
Sequence of GABAA receptor γ2 subunit alone on COS7 cells (Rattus norvegicus (P18508 39-466): as the sequence (P18508 39-466, chain 3 of 3) above

B1: human monoclonal GABAAR antibody #113-175 (antibody, V domains shown)
VH: EVQLLESGEGLVQPGGSLRLSCAASGFTFKTYAMSWVRQAPGKGLEWVSAISGSGASTYYADFVEGRFTISRDNSKNTLYLQMNSLRAEDTAVYYCAKEPPAMVWFGGGYFDYWGQGTLVTVSS
VL: EIVLTQSPATLSLSPGERATLSCRASQSVSSYLAWYQQKPGQAPRLLIYDASNRATGIPARFSGSGSGTDFTLTISSLEPEDFAVYYCQQRSNWPPYSFGQGTKLEIK
As to B1, the binding result was “no binding (tested: 5 μg/ml)” in experiment [1]; “binds” in experiment [2]; “no binding (tested: 5 μg/ml)” in experiment [3]; “no binding (tested: 5 μg/ml)” in experiment [4]; “no binding (tested: 5 μg/ml)” in [5]; “no binding (tested: 5 μg/ml)” in experiment [6]. Moreover, the binding result in experiment [7] is “no binding (tested: 5 μg/ml)”; in experiment [8], “no binding (tested: 5 μg/ml)”; in experiment [9], “no binding (tested: 5 μg/ml)”; in experiment [10], “binds”; in experiment [11], “binds”.

B2: human monoclonal GABAAR antibody #113-115 (antibody, V domains shown)
VH: QVQLVQSGAEVKKPGASVKVSCKASGYTFISYDINWVRQATGQGLEWMGGMDPKSGNTGYAQKFQGRVTMTTNTAISTAYMELSSLRSEDTAVYYCVRGEQSYDRTGYSDWFDPWGQGTLVTVSS
VL: not shown
As to B2, the binding result in experiment [12] is recorded as “no binding”; in experiment [13] it was “no binding”; in [14] it was “no binding”; in [15] it was “no binding”; in [1] it was “binds”; in experiment [2], “binds”. Besides, the binding result is listed as “no binding (tested: 5 μg/ml)” in experiment [3], “no binding (tested: 5 μg/ml)” in [4], “binds” in [11] and “binds” in experiment [16].
